Source: PMC13423832

B1: AP-Nogo66-His, wild type (alkaline phosphatase fusion of the NOGO66 domain of reticulon-4) [human] / RTNR-FLAG-His (Nogo66 receptor) on HEK293T cells [not stated] (parent)
chain 1: RIYKGVIQAIQKSDEGHPFRAYLESEVAISEELVQKYSNSALGHVNCTIKELRRLFLVDDLVDSLK
chain 2: CPGACVCYNEPKVTTSCPQQGLQAVPVGIPAASQRIFLHGNRISHVPAASFRACRNLTILWLHSNVLARIDAAAFTGLALLEQLDLSDNAQLRSVDPATFHGLGRLHTLHLDRCGLQELGPGLFRGLAALQYLYLQDNALQALPDDTFRDLGNLTHLFLHGNRISSVPERAFRGLHSLDRLLLHQNRVAHVHPHAFRDLGRLMTLYLFANNLSALPTEALAPLRALQYLRLNDNPWVCDCRARPLWAWLQKFRGSSSEVPCSLPQRLAGRDLKRLAANDLQGCAVATGPYHPIWTGRATDEEPLGLPKCCQPDAADKASVLEPGRPASAGNALKGRVPPGDSPPGNGSGPRHINDSPFGTLPGSAEPPLTAVRPEGSEPPGFPTSGPRRRPGCSRKNRTRSHCRLGQAGSGGGGTGDSEGS

Variants of: B1
Experiment: AP (alkaline phosphatase fusion) receptor binding assay on HEK293T cells overexpressing RTNR
Conditions: with RTNR-FLAG-His (Nogo66 receptor) on HEK293T cells; RTNR OE HEK293T cells; n = 3 biological replicates, mean ± s.d.; parent: 0.00087; read off a plot

response (min^-1 (absorbance/time))	Variant
0.0015	chain 1 RIYKGVIQAIQKSDEGHPFRAYLESEVAISEELVQKYSNSALGHVNWTIKELRRLFLVDDLVDSLK [chain 1 C47W]
